Consider two substances from patent US6406883.

The target in the assay is human laminin (immobilized; Gibco BRL) (human) (UniProt P25391). The assay is described as follows: cell-based or functional assay.
[1] abbreviates: scale: % of values obtained for the wildtype strain.

Under setting [1], “Lmb on the surface of Streptococcus agalactiae (GBS) wildtype strain O90R” had an adherence of FITC-labelled lmb mutant lmb-k1 to immobilized laminin, relative to wildtype strain O90R of 25 and an adherence of FITC-labelled lmb mutant lmb-k2 to immobilized laminin, relative to wildtype strain O90R of 25.

On to “Recombinant Lmb protein harboring six consecutive histidin residues at the C-terminus (amino acid 19-306, expressed from pET21a::lmb in E. coli BL21(DE3))”, for which the adherence of FITC-labelled O90R wildtype bacteria to laminin preincubated with recombinant Lmb (100 ug/ml) (% of the initial values) amounted to 60.
